From US20190382503A1 (published 2019)
Positions count from the first letter of the chain named. One block for each binder: values may come before it.

Columns and labels:
cynomolgus 5T4 on cells [1] = target: T1, cynomolgus 5T4 on cells (cynomolgus macaque, UniProt Q4R8Y9 35-420); assay: flow cytometry, CHO-K1/cynomolgus 5T4 transfectants (FIG. 7)
T1 construct: whole, on cells; also called CHO-K1/cynomolgus 5T4
T1 sequence (looked up): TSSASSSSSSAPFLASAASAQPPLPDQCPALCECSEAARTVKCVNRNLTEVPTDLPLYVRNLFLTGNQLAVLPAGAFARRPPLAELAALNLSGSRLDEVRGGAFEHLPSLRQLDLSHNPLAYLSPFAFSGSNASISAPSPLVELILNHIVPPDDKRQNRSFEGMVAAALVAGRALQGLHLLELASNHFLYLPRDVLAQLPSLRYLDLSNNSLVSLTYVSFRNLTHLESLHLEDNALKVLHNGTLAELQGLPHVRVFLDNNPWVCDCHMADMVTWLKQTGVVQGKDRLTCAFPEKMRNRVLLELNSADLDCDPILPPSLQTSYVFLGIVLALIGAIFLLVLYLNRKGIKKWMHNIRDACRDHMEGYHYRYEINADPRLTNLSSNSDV
Protocol: (§1) Binding studies were performed by standard flow cytometry-based staining procedures two cell lines expressing 5T4:CHO-K1 cells (obtained from Alligator) transduced with human or cynomolgus macaque 5T4 and SKOV-3 human ovarian adenocarcinoma cells which express (human) 5T4. All labeling and washes were performed in U-bottom 96-well plates in saline buffer with 0.1% BSA and 2 mM EDTA. Cell were plated at approximately 100,000 cells per well and incubated with a range of 100 nM to 0.05 nM concentrations of test molecules in 50 μL volume/well, for 30 minutes on ice. Cells were washed three times then incubated for another 30 min on ice with fluorescently-labeled secondary polyclonal antibody, F(ab′)² goat anti-human IgG (Jackson ImmunoResearch Laboratories). The cells were then washed twice and the samples acquired in a BD LSRII or a Symphony A3 flow cytometer. The sample files were analyzed using FlowJo software; the mean fluorescence intensity (MFI-mean) or median fluorescence intensity (MFI-median) of the live population of cells in each well was calculated after gating on live cells (forward vs side scatter). Nonlinear regression analysis to determine EC₅₀ values was performed in GraphPad Prism 6® graphing and statistics software.

[2] = target: T2, recombinant human 5T4 extracellular domain (human, UniProt Q13641 32-355); assay: SPR, Biacore T200, bispecific captured by anti-human IgG, monomeric ECD injected, 1:1 model
T2 construct: The entry starts at Met 1; also called Hu 5T4; 5T4 ECD
T2 sequence: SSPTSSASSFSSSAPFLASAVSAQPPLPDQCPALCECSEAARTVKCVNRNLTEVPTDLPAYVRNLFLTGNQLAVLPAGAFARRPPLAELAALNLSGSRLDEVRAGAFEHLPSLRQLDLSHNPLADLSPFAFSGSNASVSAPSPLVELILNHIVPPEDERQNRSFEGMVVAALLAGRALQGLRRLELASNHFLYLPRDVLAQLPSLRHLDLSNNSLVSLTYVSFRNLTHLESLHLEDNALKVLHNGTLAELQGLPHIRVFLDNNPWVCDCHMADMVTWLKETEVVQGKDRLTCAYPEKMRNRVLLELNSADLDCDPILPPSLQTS
Protocol: (§2) Goat anti-human IgG F(ab′)2 fragment (Jackson ImmunoResearch) at 20 μg/mL in 10 mM sodium acetate (pH 4.5) was immobilized at a density of 2000 response units (RU) onto the flow cell of a CM5 research-grade sensor chip (GE) by standard amine coupling chemistry. Each bispecific variant at 200 nM in HBS-EP+ buffer was captured in the flow cell with the immobilized anti-human IgG at a flow rate of 50 μL/min for 60 sec to reach ˜500 RU response, leaving one flow cell surface unmodified as the reference. Following a 30 sec stabilization period, four different concentrations of each ECD (0, 20, 60, and 180 nM) were injected at 50 μL/min for either 120 sec followed by a 240 sec dissociation period (for 5T4) or 90 sec followed by a 180 sec dissociation period (for 4-1BB). Regeneration was achieved by duplicate injections of 10 mM glycine (pH 1.5) at a flow rate of 50 μL/min for 30 sec followed by HBS-EP+ buffer stabilization for 1 min.
(§3) Sensorgrams obtained from kinetic SPR measurements were analyzed by the double subtraction method. The signal from the reference flow cell was subtracted from the analyte binding response obtained from flow cells with immobilized or captured ligands. Buffer reference responses were then averaged from multiple injections. The averaged buffer reference responses were then subtracted from analyte binding responses, and the final double-referenced data were analyzed with Biacore T200 Evaluation software (2.0, GE), globally fitting data to derive kinetic parameters. All sensorgrams were fitted using a simple one-to-one binding model.

[3] = target: T3, recombinant human CD137 extracellular domain (human, UniProt Q07011 24-186); assay: as above
T3 construct: The entry starts at Met 1; also called Hu CD137; 4-1BB ECD
Protocol: as §2, §3

human 5T4 on cells [4] = target: T4, human 5T4 on cells (human, UniProt Q13641 32-420); assay: flow cytometry, SKOV-3 cells (FIG. 6)
T4 construct: Human 5T4 on transfected cells (CHO-K1, CT26, B16) or endogenous on human tumour lines; the cell line is named under assay; also called trophoblast glycoprotein; TPBG
T4 sequence: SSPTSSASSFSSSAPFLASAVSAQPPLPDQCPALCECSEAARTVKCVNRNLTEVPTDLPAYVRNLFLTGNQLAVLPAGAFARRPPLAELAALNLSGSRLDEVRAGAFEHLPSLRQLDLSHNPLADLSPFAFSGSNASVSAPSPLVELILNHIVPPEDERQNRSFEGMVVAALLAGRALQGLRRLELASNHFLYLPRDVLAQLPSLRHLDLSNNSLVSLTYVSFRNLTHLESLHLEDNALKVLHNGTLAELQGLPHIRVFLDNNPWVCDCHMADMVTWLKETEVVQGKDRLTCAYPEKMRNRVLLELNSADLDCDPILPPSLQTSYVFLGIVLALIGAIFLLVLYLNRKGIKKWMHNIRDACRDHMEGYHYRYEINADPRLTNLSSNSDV
Protocol: as §1
(§4) The differences in EC₅₀ values between constructs were more evident when binding assays were conducted on SKOV-3 cells. […]

human 5T4 on cells [5] = target: T4, human 5T4 on cells; assay: flow cytometry, CHO-K1/human 5T4 cells (FIG. 4)
Protocol: as §1, §4

[6] = target: T5, CD137 / 4-1BB (soluble antigen, form not stated) (UniProt Q07011 24-186, limits assumed); assay: ELISA
T5 construct: also called biotinylated 4-1BB antigen; CD137 in ELISA

cynomolgus 5T4 on cells [7] = target: T1, cynomolgus 5T4 on cells; assay: flow cytometry, CHO-K1/cynomolgus 5T4 transfectants (FIG. 14)
Protocol: as §1
All the constructs bound with EC₅₀ values in the range of 1 to 3 nM. […]

B1: ALG.APV-187 (bispecific antibody)
chain: EVQLLESGGGLVQPGGSLRLSCAASGFTFSHGSMYWVRQAPGKGLEWVSSISSGSGSTYYADSVKGRFTISHDNSKNTLYLQMNSLRAEDTAVYYCARSSYYGSYYSIDYWGQGTLVTVSSGGGGSGGGGSGGGGSGGGGSDIQMTQSPSSLSASVGDRVTITCRASQSISSYLNWYQQKPGKAPKLLIYAASSLQSGVPSRFSGSGSGTDFTLTISSLQPEDFATYYCQQYYDNLPTFGQGTKLEIKSSEPKSSDKTHTCPPCPAPEAAGAPSVFLFPPKPKDTLMISRTPEVTCVVVDVSHEDPEVKFNWYVDGVEVHNAKTKPREEQYNSTYRVVSVLTVLHQDWLNGKEYKCAVSNKALPAPIEKTISKAKGQPREPQVYTLPPSRDELTKNQVSLTCLVKGFYPSDIAVEWESNGQPENNYKTTPPVLDSDGSFFLYSKLTVDKSRWQQGNVFSCSVMHEALHNHYTQKSLSLSPGSGGGGSGGGGSGGGGSPSEVQLLESGGGLVQPGGSLRLSCAASGFTFSSYAMSWVRQAPGKCLEWVSAISGSGGSTYYADSVKGRFTISRDNSKNTLYLQMNSLRAEDTAVYYCARYYGGYYSAWMDYWGQGTLVTVSSGGGGSGGGGSGGGGSGGGGSDIQMTQSPSSLSASVGDRVTITCRASQSISSFLNWYQQKPGKAPKLLIYAASSLQSGVPSRFSGSGSGTDFTLTISSLQPEDSATYYCQQTYGYLHTFGCGTKLEIKR
notes: scFv-Fc-scFv (ADAPTIR) homodimer with stabilizing disulfide in the 1210 scFv
binding result (cynomolgus 5T4 on cells [1]): binds
Kd [2]: 35 nM
koff [2]: 0.00072 s⁻¹
kon [2]: 21000 M⁻¹ s⁻¹
Kd [3]: 73 nM
koff [3]: 0.027 s⁻¹
kon [3]: 370000 M⁻¹ s⁻¹

B2: ALG.APV-196 (bispecific antibody)
chain: B1 chain with H31Y, T527D, S529E, S670R, F672A, S723F
notes: scFv-Fc-scFv (ADAPTIR) homodimer
binding result (human 5T4 on cells [4]): binds
binding result (cynomolgus 5T4 on cells [1]): binds

B5: ALG.APV-210 (bispecific antibody)
chain: EVQLLESGGGLVQPGGSLRLSCAASGFTFSHGSMYWVRQAPGKGLEWVSSISSGSGSTYYADSVKGRFTISHDNSKNTLYLQMNSLRAEDTAVYYCARSSYYGSYYSIDYWGQGTLVTVSSGGGGSGGGGSGGGGSGGGGSDIQMTQSPSSLSASVGDRVTITCRASQSISSYLNWYQQKPGKAPKLLIYAASSLQSGVPSRFSGSGSGTDFTLTISSLQPEDFATYYCQQYYDNLPTFGQGTKLEIKEPKSSDKTHTCPPCPAPEAAGAPSVFLFPPKPKDTLMISRTPEVTCVVVDVSHEDPEVKFNWYVDGVEVHNAKTKPREEQYNSTYRVVSVLTVLHQDWLNGKEYKCAVSNKALPAPIEKTISKAKGQPREPQVYTLPPSRDELTKNQVSLTCLVKGFYPSDIAVEWESNGQPENNYKTTPPVLDSDGSFFLYSKLTVDKSRWQQGNVFSCSVMHEALHNHYTQKSLSLSPGSGGGGSGGGGSGGGGSPSEVQLLESGGGLVQPGGSLRLSCAASGFTFSSYAMSWVRQAPGKCLEWVSAISGSGGSTYYADSVKGRFTISRDNSKNTLYLQMNSLRAEDTAVYYCARYYGGYYSAWMDYWGQGTLVTVSSGGGGSGGGGSGGGGSGGGGSDIQMTQSPSSLSASVGDRVTITCRASQSISSFLNWYQQKPGKAPKLLIYAASSLQSGVPSRFSGSGSGTDFTLTISSLQPEDSATYYCQQTYGYLHTFGCGTKLEIKR
notes: scFv-Fc-scFv (ADAPTIR) homodimer with stabilizing disulfide in the 1210 scFv; also called ALG.APV-223; 5T4-CD137 bispecific antibody
EC50 [6]: 0.7 nM
binding result (cynomolgus 5T4 on cells [7]): binds
Kd [2]: 79 nM
koff [2]: 0.0012 s⁻¹
kon [2]: 15000 M⁻¹ s⁻¹
Kd [3]: 59 nM
koff [3]: 0.033 s⁻¹
kon [3]: 550000 M⁻¹ s⁻¹

Other lines, results leading:

binding result (human 5T4 on cells [5]): binds
binding result (cynomolgus 5T4 on cells [1]): binds
B3: ALG.APV-191 (bispecific antibody)
chain: B1 chain with S30D, H31Y, Q196H, S723F, R748S
notes: as for B2

binding result (human 5T4 on cells [4]): binds
binding result (cynomolgus 5T4 on cells [1]): binds
B4: ALG.APV-198 (bispecific antibody)
chain: B1 chain with T527D, S529E, S670R, F672A, S723F
notes: as for B2
